From US20150266963A1 (ARGEN X B V, published 2015)

Key:
[1] = target: T1, recombinant human CD70 (Flag-TNC-CD70) (human, UniProt P32970 39-193); test: blocking ELISA; human Flag-TNC-CD70; competitor CD27-Fc
T1 construct: extracellular domain; Captured by anti-Flag mAb in ELISA; as 'recombinant human CD70' immobilised on Biacore CM5 chips; TNC is for trimerisation; also called recombinant CD70; human recombinant CD70; not shown: Flag tag and TNC trimerisation domain
T1 sequence (looked up): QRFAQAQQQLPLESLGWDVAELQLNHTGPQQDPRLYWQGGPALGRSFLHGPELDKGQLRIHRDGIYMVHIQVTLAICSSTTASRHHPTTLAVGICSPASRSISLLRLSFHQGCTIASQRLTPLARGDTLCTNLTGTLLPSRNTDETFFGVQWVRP
Method: In this assay, a microtiter plate (Nunc Maxisorb) was first coated with 100 μl anti-FLAG M2 monoclonal antibody (Sigma Aldrich, F3165) at 1250-fold dilution in PBS (to achieve a final concentration of approximately 3.5 μg/ml) overnight at 4° C. The plate was washed once with PBS-Tween and incubated at RT for 2 hours with 300 μl PBS-1% casein. The plate was washed a further three times with PBS-Tween. 100 μl of 5 ng/ml (80 pM) Flag-TNC-CD70 (The Journal of Immunology, 2009, 183: 1851-1861) diluted in PBS-0.1% casein was added to the plate and incubated at RT for 1 hour while shaking. The plate was washed five times with PBS-Tween. The CD70 mAb to be tested was added to the plate; various concentrations were achieved by diluting the stock antibody solution in PBS-0.1% casein. Immediately thereafter, 50 μl of 1 μg/ml (final concentration 6.5 nM) recombinant human CD27 Fc chimera (R&D systems 382-CD, MW=46.5 kDa) was added, and incubated at RT for 1 hour while shaking. The plate was washed five times with PBS Tween. 100 μl of biotinylated anti-CD27 (eBioscience 13-0271), diluted 500-fold in PBS-0.1% casein, was added, and the plate incubated at RT for a further hour, while shaking. The plate was washed five times with PBS Tween. […] 100 μl TMB was added to the plate and the OD at 620 nm was measured. […]

[2] = target: T2, human CD70 expressed on the surface of cells (human, UniProt P32970 1-193); test: flow cytometry on U266 cells, goat anti human IgG1 FITC [panel U266]
T2 construct: whole, on cells; also called cell surface expressed CD70; CD70 on cells
T2 sequence (looked up): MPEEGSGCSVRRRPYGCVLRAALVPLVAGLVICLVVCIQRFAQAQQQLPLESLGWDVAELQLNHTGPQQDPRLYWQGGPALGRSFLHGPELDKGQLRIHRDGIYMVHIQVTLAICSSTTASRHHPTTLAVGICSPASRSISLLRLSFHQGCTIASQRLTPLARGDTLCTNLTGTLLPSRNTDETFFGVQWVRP

[3] = target: T3, cynomolgus monkey CD70 on HSC-F cells (cynomolgus monkey, UniProt A0A2K5WTU9 1-190); test: flow cytometry on cynomolgus HSC-F cells, goat anti human IgG1 FITC [panel cynomolgus monkey]
T3 construct: whole, on cells; also called cynomolgus CD70
T3 sequence: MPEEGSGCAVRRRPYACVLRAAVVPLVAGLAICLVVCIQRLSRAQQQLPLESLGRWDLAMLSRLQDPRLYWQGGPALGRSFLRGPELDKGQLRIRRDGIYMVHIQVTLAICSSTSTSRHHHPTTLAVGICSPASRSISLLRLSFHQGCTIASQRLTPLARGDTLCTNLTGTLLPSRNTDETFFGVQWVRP

[4] = target: T2, human CD70 expressed on the surface of …; test: flow cytometry on SU-DHL-6 cells, 1 h at 4 °C, anti-hIgG1-Fc-FITC or anti-hIgG-Fc-PE [panel SU-DHL-6]
Method: […] This was either done at 4° C. (1 hour incubation of cells with mAbs) or at 37° C. (15 minutes incubation of cells with mAbs). Binding was detected using anti-hIgG1-Fc-FITC (AF006, Binding Site) or anti-hIgG1-Fc-PE antibody (eBioscience, 12-4998). Fluorescence was measured using a flow cytometer.

[5] = target: T4, human-mouse CD70 chimera chim-2 (Flag-TNC-CD70); test: ELISA; chimera captured by anti-Flag mAb
T4 construct: also called chimera 2
T4 chain: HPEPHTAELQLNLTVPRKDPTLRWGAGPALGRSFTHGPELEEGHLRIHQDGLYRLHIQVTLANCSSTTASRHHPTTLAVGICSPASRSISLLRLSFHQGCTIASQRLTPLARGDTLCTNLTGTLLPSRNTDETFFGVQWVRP

[6] = target: T2, human CD70 expressed on the surface of …; test: FACS MFI at 37 C, Mino cells; reference SGN70
Method: (§1) Several cancer cell lines were tested by FACS analysis for binding of ARGX-110 and SGN70 (described in US2010/0129362) at saturating mAb concentrations (at least 2 μg/ml). This was either done at 4° C. (1 hour incubation of cells with mAbs) or at 37° C. (15 minutes incubation of cells with mAbs). Binding was detected using anti-hIgG1-Fc-FITC (AF006, Binding Site) or anti-hIgG1-Fc-PE antibody (eBioscience, 12-4998). Fluorescence was measured using a flow cytometer.

[7] = target: T2, human CD70 expressed on the surface of …; test: FACS MFI at 37 C, A498 cells; reference SGN70
Method: as §1

- IC50 [1]: 0.039 µg/mL
- EC50 (read off the curve) [2]: ~100 ng/mL
- EC50 (read off the curve) [3]: ~80 ng/mL
- EC50 (read off the curve) [4]: ~2000 ng/mL
- Signal in FACS of ARGX-110/signal in FACS of SGN70 [6]: 1 ratio
- Signal in FACS of ARGX-110/signal in FACS of SGN70 [7]: 1 ratio
B1: ARGX-110 (non-fucosylated 41D12 human IgG1) (antibody, V domains shown)
VH: EVQLVESGGGLVQPGGSLRLSCAASGFTFSVYYMNWVRQAPGKGLEWVSDINNEGGTTYYADSVKGRFTISRDNSKNSLYLQMNSLRAEDTAVYYCARDAGYSNHVPIFDSWGQGTLVTVSS
VL: QAVVTQEPSLTVSPGGTVTLTCGLKSGSVTSDNFPTWYQQTPGQAPRLLIYNTNTRHSGVPDRFSGSILGNKAALTITGAQADDEAEYFCALFISNPSVEFGGGTQLTVLG
notes: also called 41D12 (ARGX-110)
- binding result [5]: no binding (tested: dilution series from 10 µg/ml)
